Measurements published in paper PMC4515032.

Target: mCherry-tagged mutant Htt exon 1 (HttQ91)
Test: FRET or BRET

YFP-tagged wild-type Htt exon 1 (HttQ25) (domain or fragment)
mean FRET efficiency: 16.3%
